Measured values: US20220347267A1, “METHODS TO IMPROVE PATIENT RESPONSE TO IMMUNE CHECKPOINT INHIBITORS AND FUNCTIONAL TESTS TO PREDICT RESPONSE” (Biomarker Strategies, LLC, priority 2019, published 2022)

Columns and labels:
Test in all cases: PD-L1 western blot after modulators (EM and MTAs)
Assay type in all cases: cell-based, human
CAL27 cells = conditions: Head and neck CAL27, 30 minutes, 3 hours, 24 hours
From the text: (§1) Cell lines were acquired from ATCC, Sigma, or DSMZ. Human non-small cell lung carcinoma (NSCLC) cell lines H292 (ATCC no. CRL-1848.), H1299 (ATCC no. CRL-5803), H520 (ATCC no. CRL-5811), CALU6 (ATCC no. HTB-56), H1975 (ATCC no. CRL-5908), H460 (ATCC no. HTB-177), H2126 (ATCC no. CCL-256), H1650 (ATCC no. CRL-5883), and H2087 (ATCC no. CRL-5922) were used for this experiment along with head and neck squamous cell carcinoma (HNSCC) cell lines BHY (DSMZ ACC 404), CAL27 (ATCC no. CRL-2095), KYSE410 (Sigma), and A253 (ATCC no. HTB-41), melanoma cell lines A375 (ATCC no. CRL-1619), COL0853 (Sigma), and MM127 (Sigma) pancreatic cancer cell lines BXPC3 (ATCC no. CRL-1687), colorectal cancer cell lines […], HCT116 (ATCC no. CCL-247EMT), and breast cancer cell lines BT549 (ATCC no. HTB-122), BT20 (ATCC no. HTB-19), and T47D (ATCC no. HTB-133). Cells were maintained in manufacturer-recommended conditions at 37° C. inside humidified 5% CO2 incubators. Sub-cultivation and harvesting for all cell lines were performed using Accutase (GIBCO Life Technologies; cat. no. A1110501) at 37° C. for 10 minutes. Cell viability was measured using trypan blue exclusion staining in conjunction with the Countess II Automated Cell Counter (Thermo Fischer Scientific; cat. no. AMQAX1000). Measurements were made in duplicate and the average number of viable cells was recorded prior to experiments.
(§2) Enhancer Molecule and Therapies: IFNγ, (10 ng/ml; Sigma Aldrich, cat.no 11040596001), TNFα (10 ng/ml; BD Biosciences cat. no. 554618), Osimertinib (100 ng/ml; Selleckchem cat.no. S7297), Everolimus (100 ng/ml; Selleckchem cat.no S1120), GSK458 (10 ng/ml; Selleckchem cat. no. S2658), TNFb (50 ng/ml; Sigma Aldrich cat. no.), GSK795 (1,000 ng/ml; Selleckchem cat. no. S7492), IL-12 (50 ng/ml; Sigma Aldrich SRP3073), GM-CSF (50 ng/ml; Sigma Aldrich cat. no. G5035), IL-1a (1 ng/ml; Sigma Aldrich cat. no. 12778-), IL-6 (50 ng/ml; Sigma Aldrich), IL-17 (100 ng/ml; Sigma Aldrich cat. no. SRP3080), TGFb (1 ng/ml; Sigma Aldrich cat. no. T7039), and IL-10 (50 ng/ml; Sigma Aldrich cat. no. SRP3071) were administered to cell lines for various times including 30 minutes, 3 hour, and 24 hour time intervals prior to cell lysis and protein extraction.
(§3) To determine the effects of the aforementioned molecules on the modulation of PD-L1, we selected various NSCLC, HNSCC, breast cancer, melanoma, colorectal cancer, and pancreatic cancer cell lines as examples. Other diseases or cell lines could be used readily as could more complex samples such as cells isolated from xenografts and clinical samples. Cells were plated, for three different time points (30 minutes, 3 hours, and 24 hours), inside 6-well petri dishes with 2 mL of appropriate medium. Plates were incubated for 24 hours in 5% CO2 incubators at 37° C. After 24 hours, each 6-well plate was washed with PBS (Gibco Life Technologies, cat. no. 10010023) followed by fresh media being added along with each cell line's vehicle control or appropriate modulator for each specific time point, and were placed in CO2 incubators until their modulation time point was reached. Other conditions can be readily used, such as processing on automated systems such as SnapPath. At the end of each time point, while keeping plates on ice, cell lysis was conducted by aspirating culture medium from each plate, washing of each plate three times with 5 ml of cold PBS (Gibco Life Technologies, cat. no. 10010023) and culminated with the addition of cold 1× lysis buffer containing (Cell Signaling, cat. no. 9803 S) protease inhibitor cocktail (Cell Signaling, cat. no. 5871S), phosphatase inhibitor cocktail (Cell Signaling, cat. no. 5870S), and PMSF (Fisher Scientific, cat. no. ICN19538101). Plates were then placed on ice for ten minutes, swirling each plate intermittently. Aliquots of protein lysates were prepared and then stored at −80° C. until protein quantification and Western blot analysis was to be conducted. […]

H520 cells = conditions: NSCLC H520, 30 minutes, 3 hours, 24 hours
From the text: as §1, §2, §3

BHY cells = conditions: Head and neck BHY, 30 minutes, 3 hours, 24 hours
From the text: as §1, §2, §3

H1299 cells = conditions: NSCLC H1299, 30 minutes, 3 hours, 24 hours
From the text: as §1, §2, §3

H1975 cells = conditions: NSCLC H1975, 30 minutes, 3 hours, 24 hours
From the text: as §1, §2, §3

A375 cells = conditions: Melanoma A375, 30 minutes, 3 hours, 24 hours
From the text: as §1, §2, §3

Calu6 cells = conditions: NSCLC Calu6, 30 minutes, 3 hours, 24 hours
From the text: as §1, §2, §3

BxPC3 cells = conditions: Pancreatic BxPC3, 30 minutes, 3 hours, 24 hours
From the text: as §1, §2, §3

A253 cells = conditions: Head and neck A253, 30 minutes, 3 hours, 24 hours
From the text: as §1, §2, §3

KYSE410 cells = conditions: Head and neck KYSE410, 30 minutes, 3 hours, 24 hours
From the text: as §1, §2, §3

BT20 cells = conditions: Breast BT20, 30 minutes, 3 hours, 24 hours
From the text: as §1, §2, §3

H2087 cells = conditions: NSCLC H2087, 30 minutes, 3 hours, 24 hours
From the text: as §1, §2, §3

Measured: PD-L1 Response

B1: IFNγ: human IFNγ, modulator (10 ng/ml; Sigma Aldrich) (protein, UniProt P01579 24-161, looked up)
Interferon gamma: QDPYVKEAENLKKYFNAGHSDVADNGTLFLGILKNWKEESDRKIMQSQIVSFYFKLFKNFKDDQSIQKSVETIKEDMNVKFFNSNKKKRDDFEKLTNYSVTDLNVQRKAIHELIQVMAELSPAAKTGKRKRSQMLFRG
Up: all assays above
